Data taken from FireProtDB (doi:10.1021/bi00177a023).

Details: Aspergillus oryzae (strain ATCC 42149 / RIB 40), Thermal, DSC, NaCl 80 mM, reversible: yes, whole UniProt chain shown
[1] = pH 6, Sodium cacodylate-HCl 10 mM
[2] = pH 6.5, Sodium cacodylate-HCl 10 mM
[3] = pH 7, Sodium cacodylate-HCl 10 mM
[4] = pH 8.6, Sodium borate-HCl 10 mM

B1: Guanyl-specific ribonuclease T1 wild type, P00651 (protein)
chain: MMYSKLLTLTTLLLPTALALPSLVERACDYTCGSNCYSSSDVSTAQAAGYQLHEDGETVGSNSYPHKYNNYEGFDFSVSSPYYEWPILSSGDVYSGGSPGADRVVFNENNQLAGVITHTGASGNNFVECT
Tm (pH 5, Sodium acetate 10 mM): 58.8 °C
heat capacity change of unfolding (pH 5, Sodium acetate 10 mM): 0.89 kcal/mol/K
unfolding enthalpy (calorimetric) (pH 5, Sodium acetate 10 mM): 112 kcal/mol
unfolding enthalpy (van 't Hoff) (pH 5, Sodium acetate 10 mM): 115 kcal/mol
Tm [1]: 54.1 °C
heat capacity change of unfolding [1]: 1.28 kcal/mol/K
unfolding enthalpy (calorimetric) [1]: 111 kcal/mol
unfolding enthalpy (van 't Hoff) [1]: 110 kcal/mol
Tm [2]: 50.9 °C
heat capacity change of unfolding [2]: 1.23 kcal/mol/K
unfolding enthalpy (calorimetric) [2]: 106 kcal/mol
unfolding enthalpy (van 't Hoff) [2]: 112 kcal/mol
Tm [3]: 48.8 °C
heat capacity change of unfolding [3]: 1.21 kcal/mol/K
unfolding enthalpy (calorimetric) [3]: 108 kcal/mol
unfolding enthalpy (van 't Hoff) [3]: 108 kcal/mol
Tm [4]: 43.4 °C
heat capacity change of unfolding [4]: 1.2 kcal/mol/K
unfolding enthalpy (calorimetric) [4]: 94.7 kcal/mol
unfolding enthalpy (van 't Hoff) [4]: 109 kcal/mol
Tm (pH 9.7, glycine-NaOH 10 mM): 40.7 °C
heat capacity change of unfolding (pH 9.7, glycine-NaOH 10 mM): 1.22 kcal/mol/K
unfolding enthalpy (calorimetric) (pH 9.7, glycine-NaOH 10 mM): 79.7 kcal/mol
unfolding enthalpy (van 't Hoff) (pH 9.7, glycine-NaOH 10 mM): 102 kcal/mol
